The values below come from patent US20230192903A1 (published 2023).

Experiment [1] concerns the target Human CLDN18.2 (human). In words: cell-based or functional assay.
In experiment [2] the target is Human CLDN18.2 (human). In words: cell-based or functional assay. The source holds these as a separate data set.
The target of experiment [3] is T1, Human CLDN18.2 (human).
T1 construct: the cell line is named under assay; also called hCLDN18.2; human CLDN18.2 antigen
In words: flow cytometry, NUGC4-hCLDN18.2 cells. (Flow cytometry measures light scatter and fluorescence of single cells or particles in a stream.)
Method: (§1) NUGC4 and NUGC4-hCLDN18.2 cells were cultured, digested with pancreatin and centrifuged to collect cells. The cells were collected and resuspended in buffer (PBS+1% FBS) at 1×10⁴ cells/well in a 96-well plate at 100 μL per well. Then the mixture was centrifuged at 350×g for 5 min, and the supernatant was removed.

For experiment [4], the target named is T1, Human CLDN18.2. The experiment in a line: flow cytometry, NUGC4 cells (endogenous CLDN18.2).
Method: as §1
Experiment [5] concerns the target T2, human CD3 antigen (human, UniProt P07766 23-126).
T2 construct: also called Human CD3ϵ
The experiment in a line: SPR (Biacore T200), human CD3 antigen amine-coupled on CM5 chip, 1:1 fit.
Method: After the detection was completed, data fitting was carried out on the result pattern by adopting Biacore T200 Evaluation Software in a 1:1 binding fitting mode to obtain an equilibrium dissociation constant (KD).

Numbering of substitutions follows the chain as printed.

B1: bispecific antibody CS3 (bispecific antibody, human IgG1, kappa)
light: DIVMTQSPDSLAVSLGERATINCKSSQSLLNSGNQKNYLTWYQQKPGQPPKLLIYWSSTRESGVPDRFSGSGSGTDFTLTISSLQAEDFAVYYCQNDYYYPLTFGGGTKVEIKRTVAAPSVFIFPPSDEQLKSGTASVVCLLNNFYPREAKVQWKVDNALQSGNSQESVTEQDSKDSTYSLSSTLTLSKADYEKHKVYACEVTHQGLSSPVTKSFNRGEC
heavy 1: EVQLVESGGGLVKPGGSLRLSCAASGFSFSNSAMSWVRQAPGKGLEWVSTISSGDSYTYYADSVKGRFTISRDNAKNSLYLQMNSLRAEDTAVYYCARQGYGNALDYWGQGTLVTVSSASTKGPSVFPLAPSSKSTSGGTAALGCLVKDYFPEPVTVSWNSGALTSGVHTFPAVLQSSGLYSLSSVVTVPSSSLGTQTYICNVNHKPSNTKVDKKVEPKSCDKTHTCPPCPAPPVAGPSVFLFPPKPKDTLMISRTPEVTCVVVDVSHEAPEVQFNWYVDGVEVHNAKTKPREEQFNSTFRVVSVLTVVHQDWLNGKEYKCKVSNKGLPAPIEKTISKTKGQPREPQVYTLPPCRDELTKNQVSLWCLVKGFYPSDIAVEWESNGQPENNYKTTPPVLDSDGSFFLYSKLTVDKSRWQQGNVFSCSVMHEALHNHYTQKSLSLSPGK
heavy 2: EVQLVESGGGLVKPGGSLRLSCAASGFSFSNSAMSWVRQAPGKGLEWVSTISSGDSYTYYADSVKGRFTISRDNAKNSLYLQMNSLRAEDTAVYYCARQGYGNALDYWGQGTLVTVSSASTKGPSVFPLAPSSKSTSGGTAALGCLVKDYFPEPVTVSWNSGALTSGVHTFPAVLQSSGLYSLSSVVTVPSSSLGTQTYICNVNHKPSNTKVDKKVEPKSCDKTHTAPAPAPAPAPAPAPAPQVQLVESGGGVVQPGRSLRLSCAASGFTFSTYAMNWVRQAPGKGLEWVARIRSKYNNYATYYADSVKDRFTISRDDSKNTLYLQMNSLRAEDTAVYYCARHGNFGNSYVSWFAYWGQGTLVTVSSGGGGSGGGGSGGGGSQTVVTQEPSLTVSPGGTVTLTCRSSTGAVTTSNYANWVQQKPGQAPRGLIGGTNKRAPGVPARFSGSLLGGKAALTLSGVQPEDEAEYYCALWYSNLWVFGGGTKVEIKGGGGSDKTHTCPPCPAPPVAGPSVFLFPPKPKDTLMISRTPEVTCVVVDVSHEAPEVQFNWYVDGVEVHNAKTKPREEQFNSTFRVVSVLTVVHQDWLNGKEYKCKVSNKGLPAPIEKTISKTKGQPREPQVCTLPPSRDELTKNQVSLSCAVKGFYPSDIAVEWESNGQPENNYKTTPPVLDSDGSFFLVSKLTVDKSRWQQGNVFSCSVMHEALHNHYTQKSLSLSPGK
notes: CSBODY structure: two 1E9.2 Fab arms; second heavy chain (first heavy entry) and first heavy chain with anti-CD3 scFv (2a5) between CH1 and Fc2
In the case of B1, in experiment [1], the “EC50 (pM), in vitro killing by hPBMC, NUGC4-hCLDN18.2 cells” value (“EC50 (pM) … NUGC4-hCLDN18.2 cells” below) amounted to 0.698 pM and the “EC50 (pM), in vitro killing by hPBMC, NUGC4 cells” value (from here on “EC50 (pM) … NUGC4 cells”) came out at 0.333 pM. Also, in experiment [2], the “Induction of expression of CD25 EC50 (pM), NUGC4” value worked out at 5.38 pM; the “Induction of expression of CD25 EC50 (pM), NUGC4-hCLDN18.2” value turned out to be 5.45 pM; the “Induction of expression of CD69 EC50 (pM), NUGC4” value stood at 0.461 pM; the “Induction of expression of CD69 EC50 (pM), NUGC4-hCLDN18.2” value was found to be 1.45 pM. The response in experiment [3] was half-maximal at 31.5 nM (EC50). In experiment [4], this molecule displayed an EC50 of 64 nM. The same molecule showed a Kd in experiment [5] of 10 nM.

B2: bispecific antibody Y7 (bispecific antibody, human IgG1, kappa)
light: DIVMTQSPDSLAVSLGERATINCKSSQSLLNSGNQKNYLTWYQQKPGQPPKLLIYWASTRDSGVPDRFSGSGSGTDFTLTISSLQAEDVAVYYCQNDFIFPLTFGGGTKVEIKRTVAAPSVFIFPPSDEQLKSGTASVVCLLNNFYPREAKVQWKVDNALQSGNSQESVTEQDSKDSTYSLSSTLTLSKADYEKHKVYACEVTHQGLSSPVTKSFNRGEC
heavy: QVQLQESGPGLVKPSETLSLTCTVSGFSLTRYGVSWIRQPPGKGLEWIGVIWGEGNTNYNPSLKSRVTISKDSSKSQVSLKLSSVTAADTAVYYCARVNFGNALDYWGQGTLVTVSSASTKGPSVFPLAPSSKSTSGGTAALGCLVKDYFPEPVTVSWNSGALTSGVHTFPAVLQSSGLYSLSSVVTVPSSSLGTQTYICNVNHKPSNTKVDKKVEPKSCDKTHTCPPCPAPPVAGPSVFLFPPKPKDTLMISRTPEVTCVVVDVSHEAPEVQFNWYVDGVEVHNAKTKPREEQFNSTFRVVSVLTVVHQDWLNGKEYKCKVSNKGLPAPIEKTISKTKGQPREPQVYTLPPCRDELTKNQVSLWCLVKGFYPSDIAVEWESNGQPENNYKTTPPVLDSDGSFFLYSKLTVDKSRWQQGNVFSCSVMHEALHNHYTQKSLSLSPGK
chain: QVQLVESGGGVVQPGRSLRLSCAASGFTFSTYAMNWVRQAPGKGLEWVGRIRSKYNNYATYYADSVKDRFTISRDDSKNTLYLQMNSLRGEDTAVYYCARHGNFGNSYVSWFAYWGQGTLVTVSSGGGGSGGGGSGGGGSQTVVTQEPSLTVSPGGTVTLTCRSSTGAVTTSNYANWVQQKPGQAPRGLIGGTNKRAPGVPARFSGSLLGGKAALTLSGVQPEDEAEYTCALWYSNLWVFGGGTKVEIKGRGRGSDKTHTCPPCPAPPVAGPSVFLFPPKPKDTLMISRTPEVTCVVVDVSHEAPEVQFNWYVDGVEVHNAKTKPREEQFNSTFRVVSVLTVVHQDWLNGKEYKCKVSNKGLPAPIEKTISKTKGQPREPQVCTLPPSRDELTKNQVSLSCAVKGFYPSDIAVEWESNGQPENNYKTTPPVLDSDGSFFLVSKLTVDKSRWQQGNVFSCSVMHEALHNHYTQKSLSLSPGK
notes: YBODY structure: anti-CLDN18.2 Fab arm (2C6.9) and second monomer anti-CD3 scFv (Di6-2)-Fc
Turning to B2, in experiment [1], the “EC50 (pM) … NUGC4-hCLDN18.2 cells” value worked out at 0.655 pM and the “EC50 (pM) … NUGC4 cells” value stood at 5.83 pM. For the same molecule, in experiment [2], the “Induction of expression of CD25 EC50 (pM), NUGC4” value is 15.7 pM; the “Induction of expression of CD25 EC50 (pM), NUGC4-hCLDN18.2” value was 1.78 pM; the “Induction of expression of CD69 EC50 (pM), NUGC4” value stood at 4.13 pM; the “Induction of expression of CD69 EC50 (pM), NUGC4-hCLDN18.2” value worked out at 0.465 pM. For the same molecule, the EC50 in experiment [3] worked out at 25.4 nM. In addition, the EC50 in experiment [4] was 127 nM. In experiment [5], binding was characterised by a dissociation constant (Kd) of 4.86 nM.

B3: bispecific antibody CS4 (bispecific antibody, human IgG1, kappa)
light: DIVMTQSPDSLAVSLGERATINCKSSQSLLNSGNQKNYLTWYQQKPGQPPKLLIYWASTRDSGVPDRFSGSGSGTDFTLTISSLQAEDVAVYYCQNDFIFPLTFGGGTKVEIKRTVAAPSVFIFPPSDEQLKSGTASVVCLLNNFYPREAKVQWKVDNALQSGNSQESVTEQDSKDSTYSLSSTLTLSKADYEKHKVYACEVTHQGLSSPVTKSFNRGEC
heavy 1: B2 heavy
heavy 2: QVQLQESGPGLVKPSETLSLTCTVSGFSLTRYGVSWIRQPPGKGLEWIGVIWGEGNTNYNPSLKSRVTISKDSSKSQVSLKLSSVTAADTAVYYCARVNFGNALDYWGQGTLVTVSSASTKGPSVFPLAPSSKSTSGGTAALGCLVKDYFPEPVTVSWNSGALTSGVHTFPAVLQSSGLYSLSSVVTVPSSSLGTQTYICNVNHKPSNTKVDKKVEPKSCDKTHTAPAPAPAPAPAPAPAPQVQLVESGGGVVQPGRSLRLSCAASGFTFSTYAMNWVRQAPGKGLEWVARIRSKYNNYATYYADSVKDRFTISRDDSKNTLYLQMNSLRAEDTAVYYCARHGNFGNSYVSWFAYWGQGTLVTVSSGGGGSGGGGSGGGGSQTVVTQEPSLTVSPGGTVTLTCRSSTGAVTTSNYANWVQQKPGQAPRGLIGGTNKRAPGVPARFSGSLLGGKAALTLSGVQPEDEAEYYCALWYSNLWVFGGGTKVEIKGGGGSDKTHTCPPCPAPPVAGPSVFLFPPKPKDTLMISRTPEVTCVVVDVSHEAPEVQFNWYVDGVEVHNAKTKPREEQFNSTFRVVSVLTVVHQDWLNGKEYKCKVSNKGLPAPIEKTISKTKGQPREPQVCTLPPSRDELTKNQVSLSCAVKGFYPSDIAVEWESNGQPENNYKTTPPVLDSDGSFFLVSKLTVDKSRWQQGNVFSCSVMHEALHNHYTQKSLSLSPGK
notes: CSBODY structure: two 2C6.9 Fab arms; second heavy chain (first heavy entry) and first heavy chain with anti-CD3 scFv (2a5) between CH1 and Fc2
As for B3, in experiment [1], the “EC50 (pM) … NUGC4-hCLDN18.2 cells” value came to 0.306 pM and the “EC50 (pM) … NUGC4 cells” value came to 0.94 pM. In experiment [2], the “Induction of expression of CD25 EC50 (pM), NUGC4” value was 2.38 pM; the “Induction of expression of CD25 EC50 (pM), NUGC4-hCLDN18.2” value came to 1.19 pM; the “Induction of expression of CD69 EC50 (pM), NUGC4” value was 0.446 pM; the “Induction of expression of CD69 EC50 (pM), NUGC4-hCLDN18.2” value was 0.196 pM. The molecule also displayed an EC50 in experiment [3] of 18.9 nM. In experiment [4], this molecule came in with an EC50 of 23.4 nM. The affinity in experiment [5], expressed as Kd, was 12 nM.

B4: bispecific antibody Y4 (bispecific antibody, human IgG1, kappa)
light: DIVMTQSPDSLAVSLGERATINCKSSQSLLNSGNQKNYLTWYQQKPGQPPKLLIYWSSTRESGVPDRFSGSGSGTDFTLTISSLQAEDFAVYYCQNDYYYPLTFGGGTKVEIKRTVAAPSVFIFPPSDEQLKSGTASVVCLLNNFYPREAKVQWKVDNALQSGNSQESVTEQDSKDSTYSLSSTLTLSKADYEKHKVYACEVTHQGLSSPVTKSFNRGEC
heavy: B1 heavy 1
chain: B2 chain with G49A, G90A, T229Y
notes: YBODY structure: anti-CLDN18.2 Fab arm (1E9.2) and second monomer anti-CD3 scFv (2a5)-Fc
Consider B4, for which, in experiment [1], the “EC50 (pM) … NUGC4-hCLDN18.2 cells” value amounted to 0.378 pM and the “EC50 (pM) … NUGC4 cells” value turned out to be 137 pM. In experiment [2], the “Induction of expression of CD25 EC50 (pM), NUGC4” value was 12.2 pM; the “Induction of expression of CD25 EC50 (pM), NUGC4-hCLDN18.2” value came out at 0.962 pM; the “Induction of expression of CD69 EC50 (pM), NUGC4” value worked out at 0.61 pM; the “Induction of expression of CD69 EC50 (pM), NUGC4-hCLDN18.2” value came out at 0.67 pM. The same molecule yielded an EC50 in experiment [3] of 24.4 nM. Also, in experiment [4], a half-maximal response (EC50) required 58.9 nM. Also, binding in experiment [5] was characterised by a dissociation constant (Kd) of 5.74 nM.

The term EC50 denotes the concentration giving half of the maximal effect. A higher EC50 goes with a need for much substance. By Kd is commonly meant the constant that tells how readily two partners part at equilibrium. Lower therefore signals tighter binding.
